T1: human neuromedin U receptor 1 (human, UniProt Q9HB89 24-426)
T1 sequence (looked up): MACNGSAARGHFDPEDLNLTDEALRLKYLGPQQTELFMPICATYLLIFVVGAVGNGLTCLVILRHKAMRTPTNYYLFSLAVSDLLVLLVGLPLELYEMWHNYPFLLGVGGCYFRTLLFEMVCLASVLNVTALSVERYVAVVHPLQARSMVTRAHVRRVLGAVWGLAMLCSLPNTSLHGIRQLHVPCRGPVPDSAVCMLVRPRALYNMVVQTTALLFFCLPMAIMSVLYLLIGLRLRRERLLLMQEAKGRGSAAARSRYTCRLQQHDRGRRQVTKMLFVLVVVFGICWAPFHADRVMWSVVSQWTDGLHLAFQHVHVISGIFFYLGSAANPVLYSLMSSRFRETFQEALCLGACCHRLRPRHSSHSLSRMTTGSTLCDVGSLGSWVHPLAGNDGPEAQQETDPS

B1: C18DA-gGlu3-Sar12-AEPipAc-Tyr-Phe-NMeLeu-Nle-Arg-Pro-Arg-Gly-NH2 (peptide)
peptide: EEEXXXXXXXXXXXXXYFLXRPRG
HELM: PEPTIDE1{[O=C(O)CCCCCCCCCCCCCCCCC(=O)[*:2]].[gGlu].[gGlu].[gGlu].[Sar].[Sar].[Sar].[Sar].[Sar].[Sar].[Sar].[Sar].[Sar].[Sar].[Sar].[Sar].[O=C(CN1CCN(CCN[*:1])CC1)[*:2]].Y.F.[meL].[Nle].R.P.R.G.[am]}$$$$V2.0
SMILES: CCCC[C@H](NC(=O)[C@H](CC(C)C)N(C)C(=O)[C@H](Cc1ccccc1)NC(=O)[C@H](Cc1ccc(O)cc1)NC(=O)CN1CCN(CCNC(=O)CN(C)C(=O)CN(C)C(=O)CN(C)C(=O)CN(C)C(=O)CN(C)C(=O)CN(C)C(=O)CN(C)C(=O)CN(C)C(=O)CN(C)C(=O)CN(C)C(=O)CN(C)C(=O)CN(C)C(=O)CC[C@H](NC(=O)CC[C@H](NC(=O)CC[C@H](NC(=O)CCCCCCCCCCCCCCCCC(=O)O)C(=O)O)C(=O)O)C(=O)O)CC1)C(=O)N[C@@H](CCCNC(=N)N)C(=O)N1CCC[C@H]1C(=O)N[C@@H](CCCNC(=N)N)C(=O)NCC(N)=O
B2: C18DA-gGlu3-Sar15-AEPipAc-Tyr-Phe-NMeLeu-Nle-Dbu-Pro-Arg-Gly-NH2 (peptide)
peptide: EEEXXXXXXXXXXXXXXXXYFLXXPRG
HELM: PEPTIDE1{[O=C(O)CCCCCCCCCCCCCCCCC(=O)[*:2]].[gGlu].[gGlu].[gGlu].[Sar].[Sar].[Sar].[Sar].[Sar].[Sar].[Sar].[Sar].[Sar].[Sar].[Sar].[Sar].[Sar].[Sar].[Sar].[O=C(CN1CCN(CCN[*:1])CC1)[*:2]].Y.F.[meL].[Nle].[Dab].P.R.G.[am]}$$$$V2.0
SMILES: CCCC[C@H](NC(=O)[C@H](CC(C)C)N(C)C(=O)[C@H](Cc1ccccc1)NC(=O)[C@H](Cc1ccc(O)cc1)NC(=O)CN1CCN(CCNC(=O)CN(C)C(=O)CN(C)C(=O)CN(C)C(=O)CN(C)C(=O)CN(C)C(=O)CN(C)C(=O)CN(C)C(=O)CN(C)C(=O)CN(C)C(=O)CN(C)C(=O)CN(C)C(=O)CN(C)C(=O)CN(C)C(=O)CN(C)C(=O)CN(C)C(=O)CC[C@H](NC(=O)CC[C@H](NC(=O)CC[C@H](NC(=O)CCCCCCCCCCCCCCCCC(=O)O)C(=O)O)C(=O)O)C(=O)O)CC1)C(=O)N[C@@H](CCN)C(=O)N1CCC[C@H]1C(=O)N[C@@H](CCCNC(=N)N)C(=O)NCC(N)=O
B3: C18DA-gGlu3-Sar12-AEPipAc-Tyr-Phe-NMeLeu-Nle-Arg-NMeAla-Arg-Gly-NH2 (peptide)
peptide: EEEXXXXXXXXXXXXXYFLXRARG
HELM: PEPTIDE1{[O=C(O)CCCCCCCCCCCCCCCCC(=O)[*:2]].[gGlu].[gGlu].[gGlu].[Sar].[Sar].[Sar].[Sar].[Sar].[Sar].[Sar].[Sar].[Sar].[Sar].[Sar].[Sar].[O=C(CN1CCN(CCN[*:1])CC1)[*:2]].Y.F.[meL].[Nle].R.[meA].R.G.[am]}$$$$V2.0
SMILES: CCCC[C@H](NC(=O)[C@H](CC(C)C)N(C)C(=O)[C@H](Cc1ccccc1)NC(=O)[C@H](Cc1ccc(O)cc1)NC(=O)CN1CCN(CCNC(=O)CN(C)C(=O)CN(C)C(=O)CN(C)C(=O)CN(C)C(=O)CN(C)C(=O)CN(C)C(=O)CN(C)C(=O)CN(C)C(=O)CN(C)C(=O)CN(C)C(=O)CN(C)C(=O)CN(C)C(=O)CC[C@H](NC(=O)CC[C@H](NC(=O)CC[C@H](NC(=O)CCCCCCCCCCCCCCCCC(=O)O)C(=O)O)C(=O)O)C(=O)O)CC1)C(=O)N[C@@H](CCCNC(=N)N)C(=O)N(C)[C@@H](C)C(=O)N[C@@H](CCCNC(=N)N)C(=O)NCC(N)=O
B4: C18DA-gGlu3-Sar9-AEPipAc-Tyr-Phe-NMeLeu-Nle-Dbu-Pro-Arg-Gly-NH2 (peptide)
peptide: EEEXXXXXXXXXXYFLXXPRG
HELM: PEPTIDE1{[O=C(O)CCCCCCCCCCCCCCCCC(=O)[*:2]].[gGlu].[gGlu].[gGlu].[Sar].[Sar].[Sar].[Sar].[Sar].[Sar].[Sar].[Sar].[Sar].[O=C(CN1CCN(CCN[*:1])CC1)[*:2]].Y.F.[meL].[Nle].[Dab].P.R.G.[am]}$$$$V2.0
SMILES: CCCC[C@H](NC(=O)[C@H](CC(C)C)N(C)C(=O)[C@H](Cc1ccccc1)NC(=O)[C@H](Cc1ccc(O)cc1)NC(=O)CN1CCN(CCNC(=O)CN(C)C(=O)CN(C)C(=O)CN(C)C(=O)CN(C)C(=O)CN(C)C(=O)CN(C)C(=O)CN(C)C(=O)CN(C)C(=O)CN(C)C(=O)CC[C@H](NC(=O)CC[C@H](NC(=O)CC[C@H](NC(=O)CCCCCCCCCCCCCCCCC(=O)O)C(=O)O)C(=O)O)C(=O)O)CC1)C(=O)N[C@@H](CCN)C(=O)N1CCC[C@H]1C(=O)N[C@@H](CCCNC(=N)N)C(=O)NCC(N)=O
B5: C18DA-gGlu3-Sar15-AEPipAc-Tyr-Phe-NMeLeu-Nle-Dbu-NMeAla-Arg-Gly-NH2 (peptide)
peptide: EEEXXXXXXXXXXXXXXXXYFLXXARG
HELM: PEPTIDE1{[O=C(O)CCCCCCCCCCCCCCCCC(=O)[*:2]].[gGlu].[gGlu].[gGlu].[Sar].[Sar].[Sar].[Sar].[Sar].[Sar].[Sar].[Sar].[Sar].[Sar].[Sar].[Sar].[Sar].[Sar].[Sar].[O=C(CN1CCN(CCN[*:1])CC1)[*:2]].Y.F.[meL].[Nle].[Dab].[meA].R.G.[am]}$$$$V2.0
SMILES: CCCC[C@H](NC(=O)[C@H](CC(C)C)N(C)C(=O)[C@H](Cc1ccccc1)NC(=O)[C@H](Cc1ccc(O)cc1)NC(=O)CN1CCN(CCNC(=O)CN(C)C(=O)CN(C)C(=O)CN(C)C(=O)CN(C)C(=O)CN(C)C(=O)CN(C)C(=O)CN(C)C(=O)CN(C)C(=O)CN(C)C(=O)CN(C)C(=O)CN(C)C(=O)CN(C)C(=O)CN(C)C(=O)CN(C)C(=O)CN(C)C(=O)CC[C@H](NC(=O)CC[C@H](NC(=O)CC[C@H](NC(=O)CCCCCCCCCCCCCCCCC(=O)O)C(=O)O)C(=O)O)C(=O)O)CC1)C(=O)N[C@@H](CCN)C(=O)N(C)[C@@H](C)C(=O)N[C@@H](CCCNC(=N)N)C(=O)NCC(N)=O
B6: C18DA-gGlu3-Sar12-AEPipAc-Tyr-Phe-NMeLeu-Nle-Orn-NMeAla-Arg-Gly-NH2 (peptide)
peptide: EEEXXXXXXXXXXXXXYFLXXARG
HELM: PEPTIDE1{[O=C(O)CCCCCCCCCCCCCCCCC(=O)[*:2]].[gGlu].[gGlu].[gGlu].[Sar].[Sar].[Sar].[Sar].[Sar].[Sar].[Sar].[Sar].[Sar].[Sar].[Sar].[Sar].[O=C(CN1CCN(CCN[*:1])CC1)[*:2]].Y.F.[meL].[Nle].[Orn].[meA].R.G.[am]}$$$$V2.0
SMILES: CCCC[C@H](NC(=O)[C@H](CC(C)C)N(C)C(=O)[C@H](Cc1ccccc1)NC(=O)[C@H](Cc1ccc(O)cc1)NC(=O)CN1CCN(CCNC(=O)CN(C)C(=O)CN(C)C(=O)CN(C)C(=O)CN(C)C(=O)CN(C)C(=O)CN(C)C(=O)CN(C)C(=O)CN(C)C(=O)CN(C)C(=O)CN(C)C(=O)CN(C)C(=O)CN(C)C(=O)CC[C@H](NC(=O)CC[C@H](NC(=O)CC[C@H](NC(=O)CCCCCCCCCCCCCCCCC(=O)O)C(=O)O)C(=O)O)C(=O)O)CC1)C(=O)N[C@@H](CCCN)C(=O)N(C)[C@@H](C)C(=O)N[C@@H](CCCNC(=N)N)C(=O)NCC(N)=O
B7: C18DA-gGlu3-Sar15-AEPipAc-Tyr-Phe-NMeLeu-Nle-Orn-Pro-Arg-Gly-NH2 (peptide)
peptide: EEEXXXXXXXXXXXXXXXXYFLXXPRG
HELM: PEPTIDE1{[O=C(O)CCCCCCCCCCCCCCCCC(=O)[*:2]].[gGlu].[gGlu].[gGlu].[Sar].[Sar].[Sar].[Sar].[Sar].[Sar].[Sar].[Sar].[Sar].[Sar].[Sar].[Sar].[Sar].[Sar].[Sar].[O=C(CN1CCN(CCN[*:1])CC1)[*:2]].Y.F.[meL].[Nle].[Orn].P.R.G.[am]}$$$$V2.0
SMILES: CCCC[C@H](NC(=O)[C@H](CC(C)C)N(C)C(=O)[C@H](Cc1ccccc1)NC(=O)[C@H](Cc1ccc(O)cc1)NC(=O)CN1CCN(CCNC(=O)CN(C)C(=O)CN(C)C(=O)CN(C)C(=O)CN(C)C(=O)CN(C)C(=O)CN(C)C(=O)CN(C)C(=O)CN(C)C(=O)CN(C)C(=O)CN(C)C(=O)CN(C)C(=O)CN(C)C(=O)CN(C)C(=O)CN(C)C(=O)CN(C)C(=O)CC[C@H](NC(=O)CC[C@H](NC(=O)CC[C@H](NC(=O)CCCCCCCCCCCCCCCCC(=O)O)C(=O)O)C(=O)O)C(=O)O)CC1)C(=O)N[C@@H](CCCN)C(=O)N1CCC[C@H]1C(=O)N[C@@H](CCCNC(=N)N)C(=O)NCC(N)=O
B8: C18DA-gGlu3-Sar15-AEPipAc-Tyr-Phe-NMeLeu-Nle-Orn-NMeAla-Arg-Gly-NH2 (peptide)
peptide: EEEXXXXXXXXXXXXXXXXYFLXXARG
HELM: PEPTIDE1{[O=C(O)CCCCCCCCCCCCCCCCC(=O)[*:2]].[gGlu].[gGlu].[gGlu].[Sar].[Sar].[Sar].[Sar].[Sar].[Sar].[Sar].[Sar].[Sar].[Sar].[Sar].[Sar].[Sar].[Sar].[Sar].[O=C(CN1CCN(CCN[*:1])CC1)[*:2]].Y.F.[meL].[Nle].[Orn].[meA].R.G.[am]}$$$$V2.0
SMILES: CCCC[C@H](NC(=O)[C@H](CC(C)C)N(C)C(=O)[C@H](Cc1ccccc1)NC(=O)[C@H](Cc1ccc(O)cc1)NC(=O)CN1CCN(CCNC(=O)CN(C)C(=O)CN(C)C(=O)CN(C)C(=O)CN(C)C(=O)CN(C)C(=O)CN(C)C(=O)CN(C)C(=O)CN(C)C(=O)CN(C)C(=O)CN(C)C(=O)CN(C)C(=O)CN(C)C(=O)CN(C)C(=O)CN(C)C(=O)CN(C)C(=O)CC[C@H](NC(=O)CC[C@H](NC(=O)CC[C@H](NC(=O)CCCCCCCCCCCCCCCCC(=O)O)C(=O)O)C(=O)O)C(=O)O)CC1)C(=O)N[C@@H](CCCN)C(=O)N(C)[C@@H](C)C(=O)N[C@@H](CCCNC(=N)N)C(=O)NCC(N)=O

biological target: T1, human neuromedin U receptor 1; assay: cell-based or functional assay

Compared with B1, B2 is higher in EC50 (hNMUR1) buffer: 200 nM for the first, > 1000 nM for the second.

B3 and B4 are the same in EC50 (hNMUR1) buffer: 1000 nM for the first, 1000 nM for the second.

B5 and B6 cannot be ordered by EC50 (hNMUR1) buffer: > 1000 nM for the first, > 1000 nM for the second.

B7 and B8 cannot be ordered by EC50 (hNMUR1) buffer: > 1000 nM for the first, > 1000 nM for the second.

Reference: patent publication US20240279278A1, “NMU RECEPTOR 2 AGONISTS” (Boehringer Ingelheim International GmbH, priority 2023, published 2024)
